# Results taken from publication PMC3034641 (Cancer research, 2010).
# T1: THAP1(1-213)-Fc fusion protein (human, UniProt Q9NVV9 1-213)
# T1 sequence (looked up): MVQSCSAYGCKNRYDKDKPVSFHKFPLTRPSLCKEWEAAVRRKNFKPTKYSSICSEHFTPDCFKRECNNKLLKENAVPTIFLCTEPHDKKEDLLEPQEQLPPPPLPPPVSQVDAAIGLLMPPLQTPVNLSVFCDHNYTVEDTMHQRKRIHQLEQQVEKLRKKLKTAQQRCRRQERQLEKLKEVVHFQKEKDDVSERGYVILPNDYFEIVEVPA
# B1: Chemotrap-1 (THAP1(140-213)-Fc), purified from CHO cells (Fc fusion, human, UniProt Q9NVV9 140-213, looked up)
# chain: EDTMHQRKRIHQLEQQVEKLRKKLKTAQQRCRRQERQLEKLKEVVHFQKEKDDVSERGYVILPNDYFEIVEVPA
# B2: purified recombinant human CCL21 (Chemicon) (ligand, UniProt O00585 24-134, looked up)
# chain: SDGGAQDCCLKYSQRKIPAKVVRSYRKQEPSLGCSIPAILFLPRKRSQAELCADPKELWVQQLMQHLDKTPSPQKPAQGCRKDRGASKTGKKGKGSKGCKRTERSQTPKGP
# Columns and labels:
# [1] = target: B2; experiment: SPR
# [2] = target: T1, THAP1(1-213)-Fc fusion protein; experiment: SPR
Kd [1] [nM],Kd [2] [nM],Binder
102,–,B1
–,87,B2
